B1: SEQ ID No1 (protein, listed as Naja atra)
chain: LECHNQQSSQTPTTTGCSGGETNCYKKRWRDHRGYRTERGCGCPSVKNGIEINCCTTDRCNN
B2: SEQ ID No20 (protein, listed as Bungarus fasclatus)
chain: RICLNQQQSTPEDQPTNGQCYIKTDCQNKTWNTHRGSRTDRGCGCPKVKPGINLRCCKTDKCNE
B3: SEQ ID No9 (protein)
chain: TKCYKTGDRIISEACPPGQDLCYMKTWCDVFCGTRGRVIELGCTATCPTVKPHEQITCCSTDNCNPHPKMKQ
modifications: Ophiophagus hannah

What follows are molecules tested on interleukin 1 beta (IL-1 beta) (assay: Carrageenan pleural inflammation rat model, serum IL-1 beta by ELISA). Conditions: 200 μg/kg oral (intragastric) 1 hour before carrageenan; rat tail vein blood 6 hours after carrageenan; n = 10; inflammation group 52.40 ± 6.74, saline control 35.20 ± 4.78.
Format: in vivo, Wistar rats
Method: (§1) 140 Wistar rats (200-240 g) are randomly divided into 14 groups, and each group is 10. The preparation method comprises the following steps: (group 1) only receiving sterile normal saline ([…]) (control group); (group 2) carrageenan inflammation modeling+oral normal saline 10 ml/kg (inflammation group); (Group 3) Carrageenan Inflammation modeling+oral Naja atra postsynaptic neurotoxin (SEQ ID NO 1) 200 μg/kg prepared into a liquid state and continuous intragastric administration performed; (Group 4) Carrageenan Inflammation modeling+oral Naja atra postsynaptic neurotoxin (SEQ ID NO 1) 800 μg/kg prepared into a liquid state and continuous intragastric administration performed. (Group 5-14) The postsynaptic neurotoxin of Bungarus multicinctus, Ophiophagus Hannah, Naja kaouthia, Dendroaspis polylepis, Bungarus fasclatus, through the same administration model, that means carrageenan inflammation modeling+oral administration of 200 μg/kg and 800 μg/kg two doses respectively and continuously intragastric administration, so that the rat is divided into 14 groups.
(§2) Except for the […], 0.1 ml of sterile normal saline+carrageenan (CG, 1%) is injected into the rest 13 groups through pleural cavities for inflammation modeling. The preparation method comprises the following steps: 1 hour before molding, orally administration of normal saline or different types of postsynaptic neurotoxin with different doses respectively in each group, 6 hours after the carrageenan injection, collecting rat tail vein blood to detect the concentration of IL-1 beta and TNF-alpha.
(§3) The serum of the collected rat tail vein blood is separated and collected by using a commercial ELISA assay kit, and biochemical evaluation is carried out on the concentration of the tumor necrosis factor alpha (TN F-alpha) and interleukin 1 beta (IL-1 beta) according to the instructions of experimental step of the kit's manufacturer.

Molecule | IL-1β blood average concentration (x ± s)
B1 | 45.40 ± 4.95 ng/L
B2 | 44.10 ± 4.32 *^ ng/L
B3 | 44.50 ± 4.97 ng/L

Same assay, conditions: 800 μg/kg oral (intragastric) 1 hour before carrageenan; rat tail vein blood 6 hours after carrageenan; n = 10; inflammation group 52.40 ± 6.74, saline control 35.20 ± 4.78

Molecule | IL-1β blood average concentration (x ± s) [ng/L]
B1 | 41.30 ± 4.31
B2 | 40.80 ± 3.78
B3 | 41.70 ± 4.23

Each molecule was assayed on tumor necrosis factor alpha (TNF-alpha) (assay: Carrageenan pleural inflammation rat model, serum TNF-alpha by ELISA). Conditions: 200 μg/kg oral (intragastric) 1 hour before carrageenan; rat tail vein blood 6 hours after carrageenan; n = 10; inflammation group 61.30 ± 7.86, saline control 42.70 ± 5.93.
Format: in vivo, Wistar rats
Method: as §1, §2, §3

Molecule | TNF-a blood average concentration (x ± s) [ng/L]
B1 | 53.70 ± 6.32
B2 | 52.82 ± 6.55
B3 | 54.80 ± 5.01

Same assay, conditions: 800 μg/kg oral (intragastric) 1 hour before carrageenan; rat tail vein blood 6 hours after carrageenan; n = 10; inflammation group 61.30 ± 7.86, saline control 42.70 ± 5.93

Molecule | TNF-a blood average concentration (x ± s) [ng/L]
B1 | 50.60 ± 5.89
B2 | 47.81 ± 5.72
B3 | 51.20 ± 5.76

— patent publication US20240041988A1, “Use of elapidae postsynaptic neurotoxin in the treatment of over expression of inflammatory cytokines related diseases” (priority 2020, published 2024)
